Results reported in article PMC3696110, “Hsp70 Oligomerization Is Mediated by an Interaction between the Interdomain Linker and the Substrate-Binding Domain” (PLoS ONE, 2013).

Biological target: T1, SBD641 (human Hsp70 residues 384-641) (human, UniProt P0DMV8 384-641)
T1 construct: Thrombin cleavage of the His tag is stated as >99% for all variants; also called full-length SBD; not shown: His6, N-terminal, cleaved
Test: native MS; nESI-MS of SBD641 in the presence of NR peptide at a 1:1 molar ratio; 150 mM ammonium acetate, pH 7.4
Details: both partners purified

T1 sequence (P0DMV8 384-641): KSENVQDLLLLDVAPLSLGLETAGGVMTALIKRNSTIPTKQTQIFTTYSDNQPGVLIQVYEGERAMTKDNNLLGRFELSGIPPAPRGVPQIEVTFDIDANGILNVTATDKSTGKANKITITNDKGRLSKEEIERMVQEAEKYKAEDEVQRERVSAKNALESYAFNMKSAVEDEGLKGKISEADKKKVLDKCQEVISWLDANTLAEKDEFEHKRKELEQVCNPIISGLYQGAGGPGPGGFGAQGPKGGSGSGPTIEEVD

B1: NR peptide (NRLLLTG), non-dansylated (peptide)
peptide: NRLLLTG
notes: model Hsp70 substrate peptide; the peptide of that experiment may have carried the dansyl group (surmise); also called ND-NR; source: synthetic peptide (Genemed Synthesis Inc.)
  binding result: binds
